B1: NADPH oxidase activator 1 (Homo sapiens), Q86UR1 (parent)
chain: MASLGDLVRAWHLGAQAVDRGDWARALHLFSGVPAPPARLCFNAGCVHLLAGDPEAALRAFDQAVTKDTCMAVGFFQRGVANFQLARFQEALSDFWLALEQLRGHAAIDYTQLGLRFKLQAWEVLHNVASAQCQLGLWTEAASSLREAMSKWPEGSLNGLDSALDQVQRRGSLPPRQVPRGEVFRPHRWHLKHLEPVDFLGKAKVVASAIPDDQGWGVRPQQPQGPGANHDARSLIMDSPRAGTHQGPLDAETEVGADRCTSTAYQEQRPQVEQVGKQAPLSPGLPAMGGPGPGPCEDPAGAGGAGAGGSEPLVTVTVQCAFTVALRARRGADLSSLRALLGQALPHQAQLGQLSYLAPGEDGHWVPIPEEESLQRAWQDAAACPRGLQLQCRGAGGRPVLYQVVAQHSYSAQGPEDLGFRQGDTVDVLCEVDQAWLEGHCDGRIGIFPKCFVVPAGPRMSGAPGRLPRSQQGDQP
B2: pre-mRNA splicing regulator USH1G (Homo sapiens), Q495M9 (parent)
chain: MNDQYHRAARDGYLELLKEATRKELNAPDEDGMTPTLWAAYHGNLESLRLIVSRGGDPDKCDIWGNTPLHLAASNGHLHCLSFLVSFGANIWCLDNDYHTPLDMAAMKGHMECVRYLDSIAAKQSSLNPKLVGKLKDKAFREAERRIRECAKLQRRHHERMERRYRRELAERSDTLSFSSLTSSTLSRRLQHLALGSHLPYSQATLHGTARGKTKMQKKLERRKQGGEGTFKVSEDGRKSARSLSGLQLGSDVMFVRQGTYANPKEWGRAPLRDMFLSDEDSVSRATLAAEPAHSEVSTDSGHDSLFTRPGLGTMVFRRNYLSSGLHGLGREDGGLDGVGAPRGRLQSSPSLDDDSLGSANSLQDRSCGEELPWDELDLGLDEDLEPETSPLETFLASLHMEDFAALLRQEKIDLEALMLCSDLDLRSISVPLGPRKKILGAVRRRRQAMERPPALEDTEL
partner: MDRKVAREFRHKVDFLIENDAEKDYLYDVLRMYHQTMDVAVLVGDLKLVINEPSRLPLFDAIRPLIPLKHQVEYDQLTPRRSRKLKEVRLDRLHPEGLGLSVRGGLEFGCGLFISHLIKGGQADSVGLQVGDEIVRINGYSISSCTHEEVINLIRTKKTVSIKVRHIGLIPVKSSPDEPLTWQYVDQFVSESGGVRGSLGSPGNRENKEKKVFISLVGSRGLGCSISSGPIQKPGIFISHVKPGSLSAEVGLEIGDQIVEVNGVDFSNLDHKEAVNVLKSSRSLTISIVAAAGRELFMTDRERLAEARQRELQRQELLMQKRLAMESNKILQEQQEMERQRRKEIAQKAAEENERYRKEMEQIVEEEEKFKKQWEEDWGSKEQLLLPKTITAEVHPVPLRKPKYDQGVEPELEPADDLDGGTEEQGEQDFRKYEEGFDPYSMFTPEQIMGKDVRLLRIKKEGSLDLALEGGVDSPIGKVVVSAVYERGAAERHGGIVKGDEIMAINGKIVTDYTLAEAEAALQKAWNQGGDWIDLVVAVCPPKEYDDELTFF
B3: TNF receptor-associated factor 2 (Homo sapiens), Q12933 (parent)
chain: MAAASVTPPGSLELLQPGFSKTLLGTKLEAKYLCSACRNVLRRPFQAQCGHRYCSFCLASILSSGPQNCAACVHEGIYEEGISILESSSAFPDNAARREVESLPAVCPSDGCTWKGTLKEYESCHEGRCPLMLTECPACKGLVRLGEKERHLEHECPERSLSCRHCRAPCCGADVKAHHEVCPKFPLTCDGCGKKKIPREKFQDHVKTCGKCRVPCRFHAIGCLETVEGEKQQEHEVQWLREHLAMLLSSVLEAKPLLGDQSHAGSELLQRCESLEKKTATFENIVCVLNREVERVAMTAEACSRQHRLDQDKIEALSSKVQQLERSIGLKDLAMADLEQKVLEMEASTYDGVFIWKISDFARKRQEAVAGRIPAIFSPAFYTSRYGYKMCLRIYLNGDGTGRGTHLSLFFVVMKGPNDALLRWPFNQKVTLMLLDQNNREHVIDAFRPDVTSSSFQRPVNDMNIASGCPLFCPVSKMEAKNSYVRDDAIFIKAIVDLTGL
partner: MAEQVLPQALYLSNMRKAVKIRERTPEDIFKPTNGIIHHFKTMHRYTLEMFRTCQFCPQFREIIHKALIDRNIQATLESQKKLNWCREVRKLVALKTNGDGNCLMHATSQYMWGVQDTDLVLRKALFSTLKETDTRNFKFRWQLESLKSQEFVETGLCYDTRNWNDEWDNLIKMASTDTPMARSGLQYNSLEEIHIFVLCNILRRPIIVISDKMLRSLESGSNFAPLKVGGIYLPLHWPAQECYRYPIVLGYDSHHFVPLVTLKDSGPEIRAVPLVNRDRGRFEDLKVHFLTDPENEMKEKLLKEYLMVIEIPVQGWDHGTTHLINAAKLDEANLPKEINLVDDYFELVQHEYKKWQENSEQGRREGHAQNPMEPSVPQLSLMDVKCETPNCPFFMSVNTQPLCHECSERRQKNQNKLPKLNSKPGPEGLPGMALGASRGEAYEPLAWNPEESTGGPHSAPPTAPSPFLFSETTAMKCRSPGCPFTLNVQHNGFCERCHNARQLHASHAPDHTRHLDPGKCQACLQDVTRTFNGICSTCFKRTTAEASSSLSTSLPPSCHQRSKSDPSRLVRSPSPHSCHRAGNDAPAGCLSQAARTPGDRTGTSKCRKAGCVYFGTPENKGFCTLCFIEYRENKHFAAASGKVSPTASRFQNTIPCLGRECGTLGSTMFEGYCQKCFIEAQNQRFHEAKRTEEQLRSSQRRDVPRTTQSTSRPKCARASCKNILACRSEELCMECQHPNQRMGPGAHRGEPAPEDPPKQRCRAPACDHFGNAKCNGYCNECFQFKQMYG
B4: Probable splicing factor YJU2B (Homo sapiens), P13994 (parent)
chain: MGERKGVNKYYPPDFNPEKHGSLNRYHNSHPLRERARKLSQGILIIRFEMPYNIWCDGCKNHIGMGVRYNAEKKKVGNYYTTPIYRFRMKCHLCVNYIEMQTDPANCDYVIVSGAQRKEERWDMADNEQVLTTEHEKKQKLETDAMFRLEHGEADRSTLKKALPTLSHIQEAQSAWKDDFALNSMLRRRFREKKKAIQEEEERDQALQAKASLTIPLVPETEDDRKLAALLKFHTLDSYEDKQKLKRTEIISRSWFPSAPGSASSSKVSGVLKKLAQSRRTALATSPITVGDLGIVRRRSRDVPESPQHAADTPKSGEPRVPEEAAQDRPMSPGDCPPETTETPKCSSPRGQEGSRQDKPLSPAGSSQEAADTPDTRHPCSLGSSLVADYSDSESE

Variants of: B1
Details: with rim3a_human RIMBP3, Q9UFD9
rim3a_human RIMBP3, Q9UFD9, sequence (Q9UFD9 whole entry): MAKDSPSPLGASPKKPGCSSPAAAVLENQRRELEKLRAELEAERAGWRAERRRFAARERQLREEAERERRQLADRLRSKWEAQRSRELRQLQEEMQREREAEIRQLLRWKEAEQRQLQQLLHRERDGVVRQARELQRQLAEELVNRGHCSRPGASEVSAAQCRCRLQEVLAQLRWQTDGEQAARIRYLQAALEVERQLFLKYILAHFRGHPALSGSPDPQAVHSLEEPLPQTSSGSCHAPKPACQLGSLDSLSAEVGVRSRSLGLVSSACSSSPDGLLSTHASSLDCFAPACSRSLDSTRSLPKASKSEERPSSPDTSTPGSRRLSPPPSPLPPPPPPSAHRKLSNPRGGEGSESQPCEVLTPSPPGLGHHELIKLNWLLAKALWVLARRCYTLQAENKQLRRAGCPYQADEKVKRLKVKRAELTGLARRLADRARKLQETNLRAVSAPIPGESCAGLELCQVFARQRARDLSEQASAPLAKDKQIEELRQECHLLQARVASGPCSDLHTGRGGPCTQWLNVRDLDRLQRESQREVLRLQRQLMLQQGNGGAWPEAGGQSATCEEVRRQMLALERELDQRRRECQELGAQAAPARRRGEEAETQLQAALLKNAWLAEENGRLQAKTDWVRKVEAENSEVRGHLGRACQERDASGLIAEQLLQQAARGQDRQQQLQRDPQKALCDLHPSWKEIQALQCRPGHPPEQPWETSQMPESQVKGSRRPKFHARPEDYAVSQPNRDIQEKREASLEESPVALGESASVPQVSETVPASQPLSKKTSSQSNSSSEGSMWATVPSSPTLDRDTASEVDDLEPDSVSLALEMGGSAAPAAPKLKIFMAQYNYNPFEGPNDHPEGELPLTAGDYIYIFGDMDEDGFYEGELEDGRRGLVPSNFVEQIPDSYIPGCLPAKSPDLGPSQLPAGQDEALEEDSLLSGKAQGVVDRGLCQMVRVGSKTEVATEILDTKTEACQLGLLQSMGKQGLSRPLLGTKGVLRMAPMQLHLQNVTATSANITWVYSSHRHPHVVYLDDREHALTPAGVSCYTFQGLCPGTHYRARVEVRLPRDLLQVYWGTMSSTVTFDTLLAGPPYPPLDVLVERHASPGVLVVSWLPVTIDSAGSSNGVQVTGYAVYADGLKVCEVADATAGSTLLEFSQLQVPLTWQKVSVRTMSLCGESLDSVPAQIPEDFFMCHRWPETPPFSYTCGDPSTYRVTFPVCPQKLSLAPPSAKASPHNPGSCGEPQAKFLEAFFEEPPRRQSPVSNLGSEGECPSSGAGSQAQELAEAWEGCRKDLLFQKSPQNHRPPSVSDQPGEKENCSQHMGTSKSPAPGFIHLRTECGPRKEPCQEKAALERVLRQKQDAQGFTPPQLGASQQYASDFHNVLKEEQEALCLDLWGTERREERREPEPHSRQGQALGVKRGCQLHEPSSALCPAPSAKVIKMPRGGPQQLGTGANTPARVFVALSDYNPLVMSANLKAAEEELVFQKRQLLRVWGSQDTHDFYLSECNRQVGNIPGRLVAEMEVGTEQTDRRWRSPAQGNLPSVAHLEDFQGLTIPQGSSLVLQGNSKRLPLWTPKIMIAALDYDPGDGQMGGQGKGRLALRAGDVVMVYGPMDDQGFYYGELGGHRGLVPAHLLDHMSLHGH

effect of a mutation on the interaction	Variant
with no effect	D6E

Variants of: B2
Details: with ush1c_human USH1C

Variant	effect of a mutation on the interaction
L16V	with no effect
E393D	with no effect

Second part, the variant after the results:

effect of a mutation on the interaction	Variant
with no effect	L48P
with no effect	L420V

Variants of: B3
Details: with tnap3_human TNFAIP3, P21580

effect of a mutation on the interaction	Variant
with no effect	V206I
with no effect	A264T
with no effect	T134A

Variants of: B4
Details: with znf24_human ZNF24, P17028
znf24_human ZNF24, P17028, sequence (P17028 whole entry): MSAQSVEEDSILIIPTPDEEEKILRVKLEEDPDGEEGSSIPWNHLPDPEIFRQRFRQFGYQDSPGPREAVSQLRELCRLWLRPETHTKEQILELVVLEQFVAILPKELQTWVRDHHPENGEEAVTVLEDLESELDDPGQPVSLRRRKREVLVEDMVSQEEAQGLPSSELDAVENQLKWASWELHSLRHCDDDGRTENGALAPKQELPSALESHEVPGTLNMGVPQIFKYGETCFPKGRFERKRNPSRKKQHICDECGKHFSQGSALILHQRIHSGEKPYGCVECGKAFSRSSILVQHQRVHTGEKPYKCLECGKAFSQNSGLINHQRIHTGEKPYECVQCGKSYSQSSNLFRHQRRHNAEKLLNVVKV

effect of a mutation on the interaction	Variant
with no effect	S22C

Variants of: B4
Details: with traf2_human TRAF2, Q12933

effect of a mutation on the interaction	Variant
with no effect	S22C
